# From patent US5458874A, “Method of increasing monocyte chemotaxis with CAP37 and monocyte chemotactic portions thereof” (Emory University, priority 1992, dated 1995)
# Entries after “also recorded” stand apart in the source; their conditions may differ.
# B1: CAP37: granule-associated cationic protein (mol. wt. 37,000 daltons) from human PMN, 222 amino acid mature protein (protein)
# chain: IVGGRKARPRQFPFLASIQNQGRHFCGGALIHARFVMTAASCFQSQNPGVSTVVLGAYDLRRRERQSRQTFSISSMSENGYDPQQNLNDLMLLQLDREANLTSSVTILPLPLQNATVEAGTRCQVAGWGSQRSGGRLSRFPRFVNVTVTPEDQCRPNNVCTGVLTRRGGICNGDGGTPLVCEGLAHGVASFSLGPCGRGPDFFTRVALFRDWIDGVLNNPGP
# Columns and labels:
# [1] = test system: Salmonella LT2; conditions: (Shafer, 1986); cited from earlier work
# [2] = test system: P. mirabilis Re45; conditions: (Shafer, 1986); cited from earlier work
# [3] = test system: Lipid A from S. minnesota R595; Lipid A from S. typhimurium Re mutant; assay: ELISA, binding of CAP37 to Lipid A; conditions: CAP37 at 120 ng/well; Lipid A 0 to 50 μg/ml
# Experimental: The LPS from S. minnesota wild type, S. minnesota Re mutant, Lipid A from S. minnesota R595, and Lipid A from S. typhimurium Re mutant were applied to microtiter wells at concentrations ranging from 0 to 50 μg/ml and incubated overnight. The trays were then incubated with CAP37 at 120 ng/well for 1 hour at 37° C. The next incubation was with a rabbit antiserum against CAP37 (1:400 dilution) and the color development was as previously described (Pereira et al., 1989) and the absorbance was read at 492 nm.
# [4] = test system: Salmonella SH7518; assay: Bactericidal assay; format: cell-based, Salmonella typhimurium; conditions: Salmonella SH7518
# Experimental: An overnight culture of Salmonella typhimurium (or other microorganism of interest, if desired) is set up by inoculating one colony in 5 ml of LB Broth (LB Broth consists of 10 g BACTO tryptone (DIFCO), 5 g BACFO yeast (DIFCO) and 5 g NaCl made up to 1 L with endotoxin free water; add 15 g of BACTO agar (DIFCO) to this broth to make LB agar (autoclave). The culture is incubated at 37° C. with rotation. 100 μl of this overnight culture is then transferred to 5 ml of fresh LB Broth and incubated at 37° C. with rotation for 2 hours. Four ml of this log phase culture is then transferred to a sterile cuvette and the optical density is read at […]. Dilutions of the microorganism are then made in tryptone saline (5 g BAOTO tryptone (DIFCO) and 5 g NaCl made up to 1 L with endotoxin free water, pH 5.5) to give a final concentration of 5×10^3 organisms/ml (an O.D. reading of 0.25 at 520 mm is equivalent to 1×10^8 organisms/ml). The microorganisms are placed at 4° C. until ready to be used.
# The stock solutions of peptides are stored at -20° C. at concentrations of 1 mg/ml of endotoxin-free water. The peptide is diluted out in tryptone saline to the desired concentration. 100 μl of the peptide is added to each well of the microtitre plate (Corning) and then 100 μl of the bacterial suspension (well vortexed) is added. Each assay point is set up in triplicate. 100 μl of a control, consisting of bacteria and tryptone saline (T=0) in the absence of peptide is plated out on LB agar plates. The microliter plate is then incubated at 37° C. for 1 hour. At the end of the incubation time, 100 μl of each sample is plated out on LB agar plates. The T=60 control (consisting of bacteria and tryptone saline in the absence of peptide) is plated out last. The plates are incubated overnight, and the number of colony forming units (CFU) are determined.
# The % killed is determined as follows: [formula]
# [5] = test system: monocytes/macrophages; assay: In vivo chemotactic assay, intraperitoneal injection, peritoneal exudate cells; parameters: species or system BALB/c mice; conditions: for % PMN / % monocytes: i.p., mice, peritoneal exudate
# Experimental: Female BALB/c mice (6-8 weeks) (Jackson Laboratory, Bar Harbor, […].) were injected intraperitoneally (i.p.) with 100 ng CAP37 (purified according to the method of the invention) per mouse in 2 ml RPMI-1640 serum-free medium (Mediatech). A control group of mice were injected i.p. with 2 ml brewers thioglycollate (4% w/v) (Difco Laboratories), a known stimulator of inflammatory cells whose action is well documented. A second control group of mice were injected j.p. with 2 ml of RPMI-1640 alone.
# At 6, 24, 48 and 72 hours following these i.p. injections, four mice in each group were sacrificed by CO2 anesthesia. Ten ml sterile medium was injected into the peritoneal cavity of each mouse and the abdominal area gently massaged to dislodge the exudate cells. The medium containing the exudate cells was then aspirated from the peritoneal cavity using a 19 gauge needle attached to a syringe. The total number of cells in the peritoneal exudate was determined by counting the cells on a COULTER COUNTER (Coulter Electronics, Hialeah, Fla.: The operation of the COULTER COUNTER is based on electrical conductivity difference between particles and common diluent. Particles act as insulators, diluents as good conductors. The particles, suspended in an electrolyte, are forced through a small aperture through which an electrical current path has been established. As each particle displaces electrolyte in the aperture, a pulse essentially proportional to the particle volume is produced. Thus a 3-dimensional particle volume response is the basis for all sizing, regardless of position or orientation of the particle in solution.) One hundred μl of the peritoneal exudate was cytocentrifuged onto a glass slide and the cells stained with Wright's stain. A differential count of the cells was made by counting the number of monocytes, lymphocytes, neutrophils, basophils and eosinoplils per hundred consecutive cells. These experiments were performed to determine the time course of migration of neutrophils, monocytes, lymphocytes and other cells into the peritoneal cavity, in response to an i.p. injection of CAP37.
# [6] = test system: Ps. aeruginosa; conditions: (Shafer, 1986); cited from earlier work
molecule,measurement,setting,value
B1,% survival with CAP 37,[1],43%
same,% survival with CAP 37,[2],100%
same,binding to Lipid A (ELISA),[3],"capable of binding LPS and, in particular, Lipid A; also recorded: able to bind to Lipid A better than wild type LPS"
same,% survival with CAP 37,[4],10.9%
same,migration of cells into the peritoneal cavity (in words),[5]; 100 ng CAP37 per mouse i.p.,moderately increased the overall numbers of cells; also recorded: potent monocyte chemoattractant capacity
same,time at which monocytes appeared in the peritoneal cavity,[5]; 100 ng CAP37 per mouse i.p.,24 h
same,% PMN,[5]; 6 hours post injection,65%
same,% monocytes,[5]; 6 hours post injection,7%
same,% PMN,[5]; 24 hours post injection,dramatic reduction in neutrophils
same,% monocytes,[5]; 24 hours post injection,27%
same,% PMN,"[5]; 24 hours post injection, listed as CAP 37",26%
same,% PMN,[5]; 48 hours post injection,4%
same,% monocytes,[5]; 48 hours post injection,48%
same,% PMN,[5]; 72 hours post injection,3%
same,% monocytes,[5]; 72 hours post injection,55%
same,% survival with CAP 37,[6],36%
